Results reported in US20090075889A1 (YEDA RESEARCH AND DEVELOPMENT, published 2009).
Each block holds one binder with its values, some of them ahead of it.

B2: IREN 10B (other)
chain: MSGSQNNDKRQFLLERLLDAVKQCQIRFGGRKEIASDSDSRVTCLCAQFEAVLQHGLKRSRGLALTAAAIKQAAGFASKTETEPVFWYYVKEVLNKHELQRFYSLRHIASDVGRGRAWLRCALNEHSLERYLHMLLADRCRLSTFYEDWSFVMDEERSSMLPTMAAGLNSILFAINIDNKDLNGQSKFAPTVSDLLKESTQNVTSLLKESTQGVSSLFREITASSAVSILIKPEQETDPLPVVSRNVSADAKCKKERKKKKKVTNIISFDDEEDEQNSGDVFKKTPGAGESSEDNSDRSSVNIMSAFESPFGPNSNGSQSSNSWKIDSLSLNGEFGYQKLDVKSIDDEDVDENEDDVYGNSSGRKHRGHSESPEKPLEGNTCLSQMHSWAPLKVLHNDSDILFPVSGVGSYSPADAPLGSLENGTGPEDHVLPDPGLRYSVEASSPGHGSPLSSLLPSASVPESMTISELRQATVAMMNRKDELEEENRSLRNLLDGEMEHSAALRQEVDTLKRKVAEQEERQGMKVQALARENEVLKVQLKKYVGAVQMLKREGQTAEVPNLWSVDGEVTVAEQKPGEIAEELASSYERKLIEVAEMHGELIEFNERLHRALVAKEALVSQMRQELIDLRGPVPGDLSQTSEDQSLSDFEISNRALINVWIPSVFLRGKAANAFHVYQVYIRIKDDEWNIYRRYTEFRSLHHKLQNKYPQVRAYNFPPKKAIGNKDAKFVEERRKQLQNYLRSVMNKVIQMVPEFAASPKKETLIQLMPFFVDITPPGEPVNSRPKAASRFPKLSRGQPRETRNVEPQSGDL
notes: Splice isoform of IREN; Used as both bait and prey in yeast two-hybrid; also called clone 10B
B3: IREN (other)
chain: MSGSQNNDKRQFLLERLLDAVKQCQIRFGGRKEIASDSDSRVTCLCAQFEAVLQHGLKRSRGLALTAAAIKQAAGFASKTETEPVFWYYVKEVLNKHELQRFYSLRHIASDVGRGRAWLRCALNEHSLERYLHMLLADRCRLSTFYEDWSFVMDEERSSMLPTMAAGLNSILFAINIDNKDLNGQSKFAPTVSDLLKESTQNVTSLLKESTQGVSSLFREITASSAVSILIKPEQETDPLPVVSRNVSADAKCKKERKKKKKVTNIISFDDEEDEQNSGDVFKKTPGAGESSEDNSDRSSVNIMSAFESPFGPNSNGSQSSNSWKIDSLSLNGEFGYQKLDVKSIDDEDVDENEDDVYGNSSGRKHRGHSESPEKPLEGNTCLSQMHSWAPLKVLHNDSDILFPVSGVGSYSPADAPLGSLENGTGPEDHVLPDPGLRYSVEASSPGHGSPLSSLLPSASVPESMTISELRQATVAMMNRKDELEEENRSLRNLLDGEMEHSAALRQEVDTLKRKVAEQEERQGMKVQALASYLCYFVRRF
notes: Tested in yeast two-hybrid as a hybrid protein; the fusion partner is not included in the chain; also called IκB REgulator; IREN protein
B6: human TRAF2 (other, UniProt Q12933 1-501, looked up)
chain: MAAASVTPPGSLELLQPGFSKTLLGTKLEAKYLCSACRNVLRRPFQAQCGHRYCSFCLASILSSGPQNCAACVHEGIYEEGISILESSSAFPDNAARREVESLPAVCPSDGCTWKGTLKEYESCHEGRCPLMLTECPACKGLVRLGEKERHLEHECPERSLSCRHCRAPCCGADVKAHHEVCPKFPLTCDGCGKKKIPREKFQDHVKTCGKCRVPCRFHAIGCLETVEGEKQQEHEVQWLREHLAMLLSSVLEAKPLLGDQSHAGSELLQRCESLEKKTATFENIVCVLNREVERVAMTAEACSRQHRLDQDKIEALSSKVQQLERSIGLKDLAMADLEQKVLEMEASTYDGVFIWKISDFARKRQEAVAGRIPAIFSPAFYTSRYGYKMCLRIYLNGDGTGRGTHLSLFFVVMKGPNDALLRWPFNQKVTLMLLDQNNREHVIDAFRPDVTSSSFQRPVNDMNIASGCPLFCPVSKMEAKNSYVRDDAIFIKAIVDLTGL
notes: range 1-501; the fusion partner is not included in the chain; also called hTRAF2; full length TRAF2

What was measured:
human TRAF2 [1] = target: B6; assay: yeast two-hybrid, bait TRAF2, prey IREN198-388
Description: (§1) Positive clones picked up in the two hybrid screen were subjected to lacZ color development test in SFY526 yeast cells, following Clontech Laboratories' manual (for details see above mentioned publications and patent applications). In brief, transformants were allowed to grow at 30° C. for 2-4 days until reaching about 2 mm in diameter, then were transferred onto Whatman filters. The filters went through a freeze/thaw treatment in order to permeabilize the cells, then soaked in a buffer (16.1 mg/ml Na₂HP0₄ 7H₂0; 5.5 mg/ml NaH₂P0₄′H₂0; 0.75 mg/ml KCl; 0.75 mg/ml MgS0₄′7H₂O, pH=7) containing 0.33 mg/ml X-gal and 0.35 mM β-mercaptoethanol. Colonies were monitored for development of blue color which is an indication for induction of β-galactosidase.
(§2) In order to narrow down the region on the TRAF2 molecule which interacts with IREN two additional constructs were made. One construct comprising the N-terminal part of the TRAF2 molecule, amino acids 1 to 224 designated RING₁₋₂₂₄ comprising the Ring finger and the zinc finger motifs. The second construct included only the C-terminal part of TRAF2, amino acids 225 to 501, covering the “TRAF-domain” as well as an additional 42 amino acids. These two constructs were used as baits in two hybrid tests.

[2] = target: the molecule itself; assay: yeast two-hybrid, bait IREN 10B, prey IREN 10B
yeast two-hybrid = target: the molecule itself; assay: yeast two-hybrid
human TRAF2 [3] = target: B6; assay: yeast two-hybrid, bait TRAF2, prey IREN198-541
Description: as §1, §2

IREN [4] = target: B3; assay: yeast two-hybrid, bait TRAF2225-501, prey IREN
Description: as §1, §2

IREN 10B = target: B2; assay: yeast two-hybrid, bait TRAF2, prey IREN 10B
IREN [5] = target: B3; assay: yeast two-hybrid, bait TRAF2, prey IREN
Description: as §1, §2

Binder: B2
binding result [2]: binds

Binder: B3
binding result (yeast two-hybrid): no binding

Binder: B6
binding result (IREN 10B): binds | binding result (IREN [5]): binds

Further lines, results first:

binding result (human TRAF2 [1]): binds
B1: IREN198-388 (other)
chain: ESTQNVTSLLKESTQGVSSLFREITASSAVSILIKPEQETDPLPVVSRNVSADAKCKKERKKKKKVTNIISFDDEEDEQNSGDVFKKTPGAGESSEDNSDRSSVNIMSAFESPFGPNSNGSQSSNSWKIDSLSLNGEFGYQKLDVKSIDDEDVDENEDDVYGNSSGRKHRGHSESPEKPLEGNTCLSQMHS
notes: Two-hybrid prey construct

binding result (human TRAF2 [3]): binds
B4: IREN198-541 (other)
chain: ESTQNVTSLLKESTQGVSSLFREITASSAVSILIKPEQETDPLPVVSRNVSADAKCKKERKKKKKVTNIISFDDEEDEQNSGDVFKKTPGAGESSEDNSDRSSVNIMSAFESPFGPNSNGSQSSNSWKIDSLSLNGEFGYQKLDVKSIDDEDVDENEDDVYGNSSGRKHRGHSESPEKPLEGNTCLSQMHSWAPLKVLHNDSDILFPVSGVGSYSPADAPLGSLENGTGPEDHVLPDPGLRYSVEASSPGHGSPLSSLLPSASVPESMTISELRQATVAMMNRKDELEEENRSLRNLLDGEMEHSAALRQEVDTLKRKVAEQEERQGMKVQALASYLCYFVRRF
notes: Two-hybrid prey construct; also called N-terminal deletion mutant of IREN; IRENΔN

binding result (IREN [4]): binds
B5: TRAF2225-501 (other, human, UniProt Q12933 225-501, looked up)
chain: ETVEGEKQQEHEVQWLREHLAMLLSSVLEAKPLLGDQSHAGSELLQRCESLEKKTATFENIVCVLNREVERVAMTAEACSRQHRLDQDKIEALSSKVQQLERSIGLKDLAMADLEQKVLEMEASTYDGVFIWKISDFARKRQEAVAGRIPAIFSPAFYTSRYGYKMCLRIYLNGDGTGRGTHLSLFFVVMKGPNDALLRWPFNQKVTLMLLDQNNREHVIDAFRPDVTSSSFQRPVNDMNIASGCPLFCPVSKMEAKNSYVRDDAIFIKAIVDLTGL
notes: range 225-501; Two-hybrid bait construct; also called C-terminal part of TRAF2, amino acids 225 to 501; C-terminal construct comprising the TRAF domain
